Numbering of substitutions follows the chain as printed.
T1: HTR3A peptide on HLA (human)
T1 peptide: SLAETIFIV

T2: HOXB13 peptide on HLA (human)
T2 peptide: YLDVSVVQT

T3: CT45A1 peptide on HLA (human)
T3 peptide: KLVKELRCV

T4: DCAF4L2 peptide on HLA (human)
T4 peptide: ILQDGQFLV

T5: CT45A1 peptide on HLA (human)
T5 peptide: KIFEMLEGV

T6: HOXB13 peptide on HLA (human)
T6 peptide: SLSERQITI

T7: HTR3A peptide on HLA (human)
T7 peptide: AILNVDEKNQV

B1: TCR of SEQ ID NOs 383 and 384 (TCR, V domains shown)
Valpha: KQEVTQIPAALSVPEGENLVLNCSFTDSAIYNLQWFRQDPGKGLTSLLLIQSSQREQTSGRLNASLDKSSGRSTLYIAASQPGDSATYLCAVLTTDSWGKLQFGAGTQVVVTP
Vbeta: NAGVTQTPKFRILKIGQSMTLQCTQDMNHNSMYWYRQDPGMGLRLIYYSASEGTTDKGEVPNGYNVSRLNKREFSLRLESAAPSQTSVYFCASSELIGTVDYSNQPQHFGDGTRLSIL
B2: TCR of SEQ ID NOs 385 and 386 (TCR, V domains shown)
Valpha: KQEVTQIPAALSVPEGENLVLNCSFTDSAIYNLQWFRQDPGKGLTSLLLIQSSQREQTSGRLNASLDKSSGRSTLYIAASQPGDSATYLCAVLTDSWGKLQFGAGTQVVVTP
Vbeta: NAGVTQTPKFRVLKTGQSMTLLCAQDMNHEYMYWYRQDPGMGLRLIHYSVGEGTTAKGEVPDGYNVSRLKKQNFLLGLESAAPSQTSVYFCASSYWGGNTEAFFGQGTRLTVV
B3: TCR of SEQ ID NOs 387 and 388 (TCR, V domains shown)
Valpha: B2 Valpha with L93S, T94G
Vbeta: NAGVTQTPKFQVLKTGQSMTLQCAQDMNHNSMYWYRQDPGMGLRLIYYSASEGTTDKGEVPNGYNVSRLNKREFSLRLESAAPSQTSVYFCASSYWGPNTEAFFGQGTRLTVV
B4: TCR of SEQ ID NOs 373 and 374 (TCR, V domains shown)
Valpha: KQEVTQIPAALSVPEGENLVLNCSFTDSAIYNLQWFRQDPGKGLTSLLLIQSSQREQTSGRLNASLDKSSGRSTLYIAASQPGDSATYLCAANDPMDSSYKLIFGSGTRLLVRP
Vbeta: NAGVTQTPKFRVLKTGQSMTLLCAQDMNHEYMYWYRQDPGMGLRLIHYSVGEGTTAKGEVPDGYNVSRLKKQNFLLGLESAAPSQTSVYFCASSPLDGWNYGYTFGSGTRLTVV
B5: TCR of SEQ ID NOs 375 and 376 (TCR, V domains shown)
Valpha: KQEVTQIPAALSVPEGENLVLNCSFTDSAIYNLQWFRQDPGKGLTSLLLIQSSQREQTSGRLNASLDKSSGRSTLYIAASQPGDSATYLCAVRHDYKLSFGAGTTVTVRA
Vbeta: NAGVTQTPKFQVLKTGQSMTLQCAQDMNHEYMSWYRQDPGMGLRLIHYSVGAGITDQGEVPNGYNVSRSTTEDFPLRLLSAAPSQTSVYFCASSRIGQRASFFGSGTRLTVV
B6: TCR of SEQ ID NOs 371 and 372 (TCR, V domains shown)
Valpha: B5 Valpha with K97Q
Vbeta: B5 Vbeta
B7: TCR of SEQ ID NOs 347 and 348 (TCR, V domains shown)
Valpha: B1 Valpha with L93R, Q108P
Vbeta: NAGVTQTPKFQVLKIGQSMTLQCTQDMNHNYMYWYRQDPGMGLKLIYYSVGAGITDKGEVPNGYNVSRSTTEDFPLRLELAAPSQTSVYFCASSSPLGKQYFGPGTRLTVL
B8: TCR of SEQ ID NOs 351 and 352 (TCR, V domains shown)
Valpha: KQEVTQIPVALSVPEGENLVLNCSFTDSAIYNLQWFRQDPGKGLTSLLLIQSSQREQTSGRLNASLDKSSGRSTLYIAASQPGDSATYLCALRGEADSWGKLQFGAGTQVVVTP
Vbeta: B7 Vbeta with I15T, T24A, K99E, L111T
B9: TCR of SEQ ID NOs 349 and 350 (TCR, V domains shown)
Valpha: B5 Valpha with R93T, H94N, D95A, Y96G, L98S, S99T, A102D, V106L, R109K, A110P
Vbeta: NAGVTQTPKFQVLKTGQSMTLQCAQDMNHEYMSWYRQDPGMGLRLIHYSVGAGITDQGEVPNGYNVSRSTTEDFPLRLESAAPSQTSVYFCASSEVPGPYGYTFGSGTRLTVV
B10: TCR of SEQ ID NOs 361 and 362 (TCR, V domains shown)
Valpha: KQEVTQIPAALSVPEGENLVLNCSFTDSAIYNLQWFRQDPGKGLTSLLLIQSSQREQTSGRLNASLDKSSGRSTLYIAASQPGDSATYLCAVDTGRRALTFGSGTRLQVQP
Vbeta: NAGVTQTPKFQVLKTGQSMTLQCAQDMNHEYMYWYRQDPGMGLRLIHYSVGEGTTAKGEVPDGYNVSRLKKQNFLLGLESAAPSQTSVYFCASRDQINEKLFFGSGTQLSVL
B11: TCR of SEQ ID NOs 363 and 364 (TCR, V domains shown)
Valpha: B10 Valpha with D93N, T94L, R96A, R97Q, A98K, T100V, S103Q, Q108T, V109I, Q110N
Vbeta: NAGVTQTPKFRILKIGQSMTLQCTQDMNHNYMYWYRQDPGMGLKLIYYSVGAGITDKGEVPNGYNVSRSTTEDFPLRLELAAPSQTSVYFCASSSFDRDEAFFGQGTKLTVV
B12: TCR of SEQ ID NOs 359 and 360 (TCR, V domains shown)
Valpha: KQEVTQIPAALSVPEGENLVLNCSFTDSAIYNLQWFRQDPGKGLTSLLLIQSSQREQTSGRLNASLDKSSGRSTLYIAASQPGDSATYLCAVRPTRGDSWGKLQFGAGTQVVVTP
Vbeta: B3 Vbeta with W96S, G97L, P98L, N99G, T100N
B13: TCR of SEQ ID NOs 353 and 354 (TCR, V domains shown)
Valpha: QKEVEQNSGPLSVPEGAIASLNCTYSDRGSQSFFWYRQYSGKSPELIMSIYSNGDKEDGRFTAQLNKASQYVSLLIRDSQPSDSATYLCAVNYRGALTFGSGTRLQVQP
Vbeta: NAGVTQTPKFRILKIGQSMTLQCTQDMNHNYMYWYRQDPGMGLKLIYYSVGAGITDQGEVPNGYNVSRSTTEDFPLRLLSAAPSQTSVYFCASSYLRTGGNYGYTFGSGTRLTVV
B14: TCR of SEQ ID NOs 355 and 356 (TCR, V domains shown)
Valpha: B8 Valpha with V9A, L92V, R93W, G94R, E95T, A96T
Vbeta: NAGVTQTPKFRILKIGQSMTLQCTQDMNHNYMYWYRQDPGMGLKLIYYSVGAGITDKGEVPNGYNVSRSTTEDFPLRLLSAAPSQTSVYFCASSYGQGYGYTFGSGTRLTVV
B15: TCR of SEQ ID NOs 357 and 358 (TCR, V domains shown)
Valpha: KQEVTQIPAALSVPEGENLVLNCSFTDSAIYNLQWFRQDPGKGLTSLLLIQSSQREQTSGRLNASLDKSSGRSTLYIAASQPGDSATYLCAVKVWSNTGKLIFGQGTTLQVKP
Vbeta: NAGVTQTPKFRILKIGQSMTLQCTQDMNHNYMYWYRQDPGMGLKLIYYSVGAGITDKGEVPNGYNVSRSTTEDFPLRLELAAPSQTSVYFCASSYEGDISYGYTFGFGTRLTVV
B16: TCR of SEQ ID NOs 369 and 370 (TCR, V domains shown)
Valpha: KQEVTQIPAALSVPEGENLVLNCSFTDSAIYNLQWFRQDPGKGLTSLLLIQSSQREQTSGRLNASLDKSSGRSTLYIAASQPGDSATYLCAVGGYQKVTFGTGTKLQVIP
Vbeta: NAGVTQTPKFQVLKTGQSMTLQCAQDMNHNSMYWYRQDPGMGLRLIYYSASEGTTDKGEVPNGYNVSRSTTEDFPLRLLSAAPSQTSVYFCASSYQGGNEKLFFGSGTQLSVL
B17: TCR of SEQ ID NOs 365 and 366 (TCR, V domains shown)
Valpha: B16 Valpha with Q96N, V98L, T99I, T102A, K105R, Q107A, I109H
Vbeta: NAGVTQTPKFQVLKTGQSMTLQCAQDMNHNSMYWYRQDPGMGLRLIYYSASEGTTDKGEVPNGYNVSRSTTEDFPLRLLSAAPSQTSVYFCASSYQGTGELFFGEGSRLTVL
B18: TCR of SEQ ID NOs 367 and 368 (TCR, V domains shown)
Valpha: KQEVTQIPAALSVPEGENLVLNCSFTDSAIYNLQWFRQDPGKGLTSLLLIQSSQREQTSGRLNASLDKSSGRSTLYIAASQPGDSATYLCAVRPHGQNFVFGPGTRLSVLP
Vbeta: NAGVTQTPKFRVLKTGQSMTLLCAQDMNHEYMYWYRQDPGMGLRLIHYSVGEGTTDKGEVPNGYNVSRLNKREFSLRLESAAPSQTSVYFCASSSLARETQYFGPGTRLLVL
B19: TCR of SEQ ID NOs 377 and 378 (TCR, V domains shown)
Valpha: KQEVTQIPVALSVPEGENLVLNCSFTDSAIYNLQWFRQDPGKGLTSLLLIQSSQREQTSGRLNASLDKSSGRSTLYIAASQPGDSATYLCAVTDSWGKLQFGAGTQVVVTP
Vbeta: NAGVTQTPKFQVLKTGQSMTLQCAQDMNHNSMYWYRQDPGMGLRLIYYSASEGTTDKGEVPNGYNVSRLNKREFSLRLESAAPSQTSLYFCASSEGPADTYGYTFGSGTRLTVV
B20: TCR of SEQ ID NOs 381 and 382 (TCR, V domains shown)
Valpha: B1 Valpha with L93R, T94P, T95A
Vbeta: B7 Vbeta with Q11R, V12I, S95Y, P96S, K99E, Q100L, Y101F, P104E, T106S
B21: TCR of SEQ ID NOs 379 and 380 (TCR, V domains shown)
Valpha: KQEVTQIPAALSVPEGENLVLNCSFTDSAIYNLQWFRQDPGKGLTSLLLIQSSQREQTSGRLNASLDKSSGRSTLYIAASQPGDSATYLCAVSPFDLYGQNFVFGPGTRLSVLP
Vbeta: NAGVTQTPKFQVLKTGQSMTLQCAQDMNHNSMYWYRQDPGMGLRLIYYSASEGTTDKGEVPNGYNVSRLNKREFSLRLESAAPSQTSVYFCASRGTLFDPQHFGDGTRLSIL

Target: T1, HTR3A peptide on HLA
Assay: binding, other

Binding result, recognises:
B1
B2
B3

Target: T2, HOXB13 peptide on HLA
Assay: binding, other

Binding result, recognises:
B4
B5
B6

Target: T3, CT45A1 peptide on HLA
Assay: binding, other

Binding result, recognises:
B7
B8
B9

Target: T4, DCAF4L2 peptide on HLA
Assay: binding, other

Binding result, recognises:
B10
B11
B12

Target: T5, CT45A1 peptide on HLA
Assay: binding, other

Binding result, recognises:
B13
B14
B15

Target: T6, HOXB13 peptide on HLA
Assay: binding, other

Binding result, recognises:
B16
B17
B18

Target: T7, HTR3A peptide on HLA
Assay: binding, other

Binding result, recognises:
B19
B20
B21
